These results are taken from the DeepSol protein solubility set.

The nature of the data set: soluble on expression in E. coli; label from the status in PepcDB or PDB records.
With “MDAGDASRLGESLDAVSAAFQSRVMELQELVLARNMYPATAIPDLAAVDVSLTAMEAQLQAVRRRLQEEREAFPKAKKLVQQSLKQQRRLQLMLANMPTGMREDVFATPLEHNSSMMFPESLNFSSAVPEVRDHDLKIKEEPTAPPKKKGRGPAPRWYISTEELDSLSSYMRGRLTLEKVNIAINEVASYADGNAHLVACPKKKLSEDTWEKALELRDIAARESVKGRHFFLETDIKGPGLKLDTTGKAILTVRASTIMLYMLPLKLPYWIE”, the “soluble on expression in E. coli” value is “soluble”. Next, “MVSVEDYYTSEEKICDGIFVGNYGERKGSRYLFQIWDKVNEKIDAKLCIIGKGWSEIPKNSVYYGFVTEREKIDLLAKSKVFVFPSLYEGFALAVTEALSAYLPVVTWDLKWSERYPVAIRVTYPDISSFAEEVVKLLKDEKLRKSIGEKSREL”: “soluble”; “MENQTKCNISYRRIRIDKKKPPKTALKIKCLFTFSGFQEMLHVDKVDSLQTEKVNIRASGLVEWSCYTFILRLHYDRGTYASFCVARSDSLGCIDLSRDAPIRGTYTEVDQMGLFISIEPTQSIRPGHFFKTYDPKTYYYTLQLLDDSKKIIDEIHLKKHWKHPLVEQINVEQNGLYGTLFKPPGKGPFPAVIFIPGSNGMLESGYAAVLASEGFLTFTFAYFAYKKDLPKLIPDVDIEFFEKPIEYVQNSPYCSGKIGLVGQSFGGLTANYLSTKYHQVSAVVALNCSAAFCRDNAVMKENGKPMETQILDEGMSDFVNQVLRQKPAFRDLYSNLTPTTSIPWARAPKNTAYRIVQCYDDMLVDAVPSIINICGNLRKTGHHVESELVPGGHFLYFPYFPHHGIIYNAQINMLWGFGGECYQHSKSQETTWKKNVEFFKKHLGDVKRIPEWKRESTVTLPVSTKSSKSLQCKL”: “not soluble”; “MSLTEPRQAHRLHILKVALDVPLDGVFDYLSEAPVQIGQRVVVPFGPRRQVGIVVDLADASDVAPAKLKSIIQYFDQEPVLDGEFFSLLKFCADYYQYPYGQALLSALPARLRQTEPARARQQFCYWLNSAGQAADISAIPVRQAVQRRIFAALRAHGRLNEAELAELSPGWRKGLAALRERGWIEEEQVYAGLGSTLHASSVQPELNEEQVLAVQSILQYRDTFRPWLLHGITGSGKTEVYIRLLQAVLEGNQDQALVLVPEINLTPQLEARFRTRLPQFPLVTLHSNLSESERLQNWRLAQTGAARIVIGTRLSVFTPLPGLKFMIVDEEHDTSYKQQDGMRYHARDVALVRAQRRNIPIVLGSATPALETWHNARNGRYGLLTLQQRAVSQSQLPQVNCVDVSRVQMQEGLSPQLLKALKVRLERGEQSLLFINRRGYAPVLLCNACHWIAPCMRCSSRLVVHLRQGFLRCHHCGHEQNIVRQCPSCGNADLHPTGNGTQRLEETLTRLLPEARVLRVDRDSTRRKHALSEMLSAVHVGEVDILVGTQMLAKGHDFPNLTLVGVLDTDSALFSPDFRAAERLFAQLMQVAGRAGRADKPGEVLIQTSFPEHQLFNALRVQDFAAYAASLLQEREVAQFPPCEFLALIKAEANEYGPVQRFLQFAADSARALGTDALVYDPVRPQMERLKGMERGQLLFQAATRQTLQIVLRQLTPQLRAHPLSNKIRWAVDVDPQEEGHHHHHH”: “not soluble”. The value for “MEFYMKAFNKLFSLVVASVLVFSLAGCGDKEESKKFSANLNGTEIAITYVYKGDKVLKQSSETKIQFASIGATTKEDAAKTLEPLSAKYKNIAGVEEKLTYTDTYAQENVTIDMEKVDFKALQGISGINVSAEDAKKGITMAQMELVMKAAGFKEVK” was “not soluble”; that for “MGSDKIHHHHHHMRKWLLGVTAALALTALAACGTESSSTSGEEDQDVTIGYFPNLDHAAAIVGKEKGFFAEELGEEKVEFTHFPNGNDFIEALSTGSIDIGYVGPGPAINYYLTGGDVVVLGSAANGATLIVARDGSGIDTLDDFDGKSFCTPGNGCTHNVQLEIMLKELGLESNRVGGTVEHQSRIAPSNMVAMFEQGQIDAAAAPEPWGTYLVEELGAHVVAEWNDVFLGEELASVVVVTTREFLENHPEQVEAFLRAHVKSVEFAQEDVDATLETVNDALFDLTQNRLPEDVLYKAWERMAVTTDTYPDALQAWADASYELKFMDEDPNLDGFVDTSLLDSILSE” was “not soluble”; that for “AKDALLLWCQMKTAGYPNVNVHNFTTSWRDGLAFNAIVHKHRPDLLDFESLKKCNAHYNLQNAFNLAEKELGLTKLLDPEDVNVDQPDEKSIITYVATYYHYFSKMKALAVEGK” was “soluble”. Next, “MGSDKIHHHHHHMKNLRLTLAVIAGKILIYISRLLGHQGTSLPGRIARKIYPRILRTLSTNIRREIVVITGTNGKTTTSNMLAEILQQQGYSLVHNRLGANMLSGITTAFIEKSDIYGSRRFDYALLETDEATVPLLLRETRPRLVLITNFFQDQLDRYGEMDHTIKLIQEAVKDQEIEMLLNADDPLTANFEAETGLKCRYYGFDGNSCDSNRSIDSREVRYCAFCGHPLEYEKYHYAQLGQYSCPQCHSCNPERDFTGQELEMSPDIELKVDGMALKSPYQGFHNAYNILAAVSLARLLGVEEENIKKAIASFQPQAGRMEAFFINGKRVVLALVKNPAALNQTLASLIYDPSRKNLFFALNDNAADGRDISWIWDADVELLEYENVMVEQIVCSGQRSGDIALRFKYAGFPQERIRIEAELPRAIELAVQGSAESSYILCSYTALFACQRILREMEKRSGAGEETEKAYQPQS”: “not soluble”; “MAHHHHHHMSDLDKIRSKLEALKSKTEVKTDERIEIAKKNDPFNDLKVHILNVLDETRKCIREKESLQNVHGNNIEVIKRGNIIYNNMKNLDTYFLKLEEILKKQEKKKYAYSREELFDKNETFELLKRQIYECKKLSNYEHIKDTCVMDFSDFKNKQQVESKS”: “soluble”. Take “MGSDKIHHHHHHMHSMRLSQIQDFIAVAEGGSIRAAARTRDVSAPALTKSIRQLEDELHVPLLTRTTRGVVLSHYGEAFLRRARLIATEARRATEEMTQMLGARTGTVRIGVTGGPAHLLLPAALNRFRRQHPEVQVYIDSGRSAVHLQDLRAGLIDVAVSPIPDEGIDHDFICEPLYNNDSVVVAHQDHPLRHARTLRELVGSEWILTTCRMHGPGAAIMDAFRAQDLPLPRVAVRCDTFNLIQALLQNRRLLCMVARQLMQDRVGASTGLAVLPIEDPLPSHTVCLIYRADSPMPPVVASFAAQLRREAHYLINMPDSPLKRPGAPPEPRDDKPVETADIAV”: the “soluble on expression in E. coli” value is “not soluble”. Next, “MAHLSYWFKQALELEQPQPAKPLNEDIAADVAIIGGGYTGLWTAIMIKQQAPKKHVVVIEKGLCGSGASGANGGCMLTWSTKFPTLKRLFGEAQAAWLVKESEQAVLEIDAFCKQHHIDAQLSLKGVYYTATNHVQAGSMQPVVDELSRLGVNSWRRCKEDELHANTGSPRHLEGFHSSVAASVQPALLARGLRRVALEMGIEIFENTPMTKLDFGQPATVSTPDAQIKAKQVVLALNAWMVEHFTQFKNSIVVVSSDMVITKPLGESLRKTGWQAGTSVLDSRIFVHYYRDTPDGRLMLGKGGNQFSFNNQVDVMFNKPTRYQNLLRKSFDKLFPSLKEAEFEYSWTGGSDRSTSGFPFFGKLNEQRNVFYGFGYSGNGVAQTRMGGKILSSMVLGLDNEWTRSGLAKGPLGHFPPEPFRWIGAMTVRNAVRRKEEAEDCGQKPFIWDKWLAKLAGPAGKADKLDLEHHHHHH”: “soluble”; “MNTMNSVLKYKELALYGGSFDPLHKAHLAIIEQTLELLPSAKLIVLPAYQNPFKKPCFLDAQTRFKELERALKGIDRVLLSDFEIKQERAVPTIESVLHFQKLYHPQTLYLVIGADCLRHLSSWTNAKELLKRVELVVFERIGYEEIQFKGHYHPLKGIDAPISSSAIRASLGV”: “not soluble”; “MAHHHHHHMPVIKEYINPAGLRLDGRRPNEPRRLALEFGKISGCDGCCTVVSGLSHVCATVYGPREVSNRLEGKYNEVTITCDVVVAAFAGERRREQQRYSRLSEDISASVLDVARSVVLLSQYPNSQIHICIEVLKQDGSDKAACINAACLALIDASIAMKDVVYTQTVGLIEGFDVVDLTTEEIHSQCPSICITVQGHDPTNIVWMESNSRLAPEVITRLVKVAQKASTDVFETALRGPLEEHAATVLRLQANLGNIE”: “soluble”. The value for “GPGSMRARSLLRQQASAATLQPLRSVVAIGLRQEFDPHWPLPLPPPLPMNKQKHTLVLDIDETLIHTYAMGLHDDSKDHTRDPALQGVSLIDYNVLLRPHLKEFLEEVNQLFEVVFWTAGTASYCCAVLDALEQQVMQLPRSFYSYVELAKESRKMKSSTSHTNFYALSRTQTLEQQGYMKYLPMLGRKMSSVVMLDDNVRSFPLTPRNGIRIDAFDPDDHVLQRYIFALRRVQKEKPHEMEAALVQCLQQGQQE” was “not soluble”. The value for “PEPAQQQAPVEKPKKKAKLEVIGDDVVSIMVSLRWLEFLLDNYGPENTLDVLDYYESLGWISATVKEQMMKYAKMTGVMNPAQEYKIKPSIQDHIINMLFIEKLRGEEINRDLIEALEREFRTIRKGVDELYGI” was “not soluble”.

Consider “MGSDKIHHHHHHMKPSRFNLVINESDGTLLFNTLSQALLWIDRKNTNKVLKTLEDPSSTELSKTEVEKLKRGMFLLDDNFDELEFLKFRFNTYRYSDRFLRYTIVLTHSCNFDCVYCYQKVLHISSGSYISEKVQSNFLLDVERKLEYQKPNLLSVTFYGGEPLLLEETVVNLSSKLKRLCEKYGVKYDSFIVTNGYLLTEKMVDDLQKAGIKALDITLDGTEVYHDRYRKARNGAPTFSSIFENIFRAVNKGLFVQIRVNVSRENIEDVKKLIDRIAEKKLRVEFNFQPIEIVEGNPTGFQDTALNTEEFAEIETKLWWYIREKIPEYPFEYFKKPRFARCDAMCKNSFVVDVDGRVYKCWGELGMENCSGFLKETGVEFTGSYLKWLTYDPLEDEECRRCLVLPFCMGGCAFNRVVYRTLKSSKVKKPHTCIPLRYNLNEFIKIVADYKRRSAVHGISQRSSGG”, for which the “soluble on expression in E. coli” value is given as “not soluble”. Next, “MVEVHACSPGCRHHLGGAGWGDAPLVRLGYNKEARAKKFPYLKALLERPLVFDGAMGTELQKRDLTPEDYGGEAYFGCPEVLNRTRPEVVREIHLAYLEAGAEVIETNTFGALRHVLAEYGLEEAAEELAFLGARIAREAADPHGAFVAGALGPGTKLVSLGQISWDALYRAYKEAARGLLKGGVDLILLETAQDILQVRCAVLAVREAMAEVGREVPLQVQVTFEATGTMLVGTDEQAALAALESLPVDVVGMNCATGPDLMDSKVRYFAEHSTRFVSCLPNAGLPRNEGGRVVYDLTPEELAKWHLKFVAEYGVNAVGGCCGTGPEHIRKVAEAVKGLAPKPRPESFPPQVASLYQAVSLKQEASLFLVGERLNATGSKRFREMLFARDLEGILALAREQVEEGAHALDLSVAWTGRDELEDLRWLLPHLATALTVPVMVDSTSPEAMELALKYLPGRVLLNSANLEDGLERFDRVASLAKAHGAALVVLAIDEKGMAKTREEKVRVALRMYERLTEHHGLRPEDLLFDLLTFPITQGDEESRPLAKETLLAMEELRERLPGVGFVLGVSNVSFGLKPRARRVLNSVFLDEARKRGLTAAIVDAGKILPISQIPEEAYALALDLIYDRRKEGFDPLLAFMAYFEAHKEDPGKREDAFLALPLLERLKRRVVEGRKQGLEADLEEALKAGHKPLDLINGPLLAGMKEVGDLFGAGKMQLPFVLQAAEVMKRAVAYLEPHMEKKGEGKGTLVLATVKGDVHDIGKNLVDIILSNNGYRVVNLGIKVPIEEILKAVEAHKPHAVGMSGLLVKSTLVMKENLEYMRDRGYTLPVILGGAALTRSYVEELRAIYPNVYYAEDAFEGLRLMEELTGHAPPELTRKAPARPKREAPKVAPRARPVGEAPAVPRPPFFGVRVEEGLDLATIAHYVNKLALYRGQWGYSRKGLSREAWQALVEREAEPVFQRLLKEAMAEGWLEPKVLYGFFPVAREGEELLVFSPETGEVLERFRFPRQKGGGLSLVDYFRPRFAAPLGDEADWMPKEAFRAGARDVLGVQLVTMGEAPSRKAQALFASGAYQDYLFVHGFSVEMTEALAEYWHKRMRQMWGIAHQDATEIQKLFQQGYQGARYSFGYPACPDLADQAKLDRLMGFHRVGVRLTENFQLEPEHATSALVVHHPEARYFSVD”: “soluble”.
